Consider three molecules from patent publication US20160347827A1.

The target in test [1] is full-length wild-type NiV F glycoprotein (Nipah virus) (UniProt Q9IH63). As to the kind of experiment: cell-based or functional assay.
The target of test [2] is full-length wild-type HeV F glycoprotein (Hendra virus) (UniProt O89342). As to the kind of experiment: cell-based or functional assay.
The target of test [3] is soluble F glycoprotein (sF). As to the kind of experiment: SPR, Biacore 3000, mAb captured by anti-Fc on CM5, sF in solution.

For orientation: Kd means the concentration at which binding is half-saturated. A higher Kd goes with lower affinity. In general, koff refers to a measure of how fast the partners let go of each other. The kon is a measure of how fast the partners come together. Low readings indicate slower complex formation, high ones faster complex formation.

Some results are limits rather than exact numbers.

UniProt O89342, sequence (O89342 27-546): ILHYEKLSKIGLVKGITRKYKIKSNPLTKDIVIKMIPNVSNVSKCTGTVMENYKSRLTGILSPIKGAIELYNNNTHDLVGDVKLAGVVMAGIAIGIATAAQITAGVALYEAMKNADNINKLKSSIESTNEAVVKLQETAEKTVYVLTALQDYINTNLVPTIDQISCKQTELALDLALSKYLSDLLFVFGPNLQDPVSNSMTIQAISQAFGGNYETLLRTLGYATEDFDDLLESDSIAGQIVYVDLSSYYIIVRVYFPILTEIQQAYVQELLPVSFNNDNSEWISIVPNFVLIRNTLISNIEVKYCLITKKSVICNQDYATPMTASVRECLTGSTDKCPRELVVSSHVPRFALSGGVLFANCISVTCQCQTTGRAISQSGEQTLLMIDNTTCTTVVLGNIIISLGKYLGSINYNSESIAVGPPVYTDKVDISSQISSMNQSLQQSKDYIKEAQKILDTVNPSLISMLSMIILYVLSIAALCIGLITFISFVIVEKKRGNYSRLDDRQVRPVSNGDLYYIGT
UniProt Q9IH63, sequence (Q9IH63 27-546): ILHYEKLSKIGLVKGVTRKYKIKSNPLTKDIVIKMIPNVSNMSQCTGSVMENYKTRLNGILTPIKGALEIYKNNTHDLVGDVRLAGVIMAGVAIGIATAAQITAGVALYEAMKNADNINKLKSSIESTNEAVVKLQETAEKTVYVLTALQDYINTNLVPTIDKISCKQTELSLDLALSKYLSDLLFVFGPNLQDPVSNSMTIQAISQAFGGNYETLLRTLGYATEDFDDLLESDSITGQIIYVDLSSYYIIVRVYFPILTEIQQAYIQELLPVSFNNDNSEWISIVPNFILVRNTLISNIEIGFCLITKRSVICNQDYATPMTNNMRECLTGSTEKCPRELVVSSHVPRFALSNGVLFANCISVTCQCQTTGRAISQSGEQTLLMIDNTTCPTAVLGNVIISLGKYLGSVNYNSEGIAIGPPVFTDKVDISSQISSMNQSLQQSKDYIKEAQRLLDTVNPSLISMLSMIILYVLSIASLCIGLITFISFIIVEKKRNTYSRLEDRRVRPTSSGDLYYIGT

B1: humanized 5B3.1 IgG1 (antibody, V domains shown)
VH: EVQLVESGGGLVKPGGSLRLSCAASGFTFSSYSMSWVRQAPGKGLEWVAMISSGGSYSYYADSVKGRFTISRDNSKNTLYLQMNSLRAEDTAVYYCARQGDYAWFDIWGQGTLVTVS
VL: DIQMTQSPSSLSASVGDRVTITCLASQTIGTWLAWYQQKPGKAPKLLIYAATSLADGVPSRFSGSGSGTDFTLTISSLQPEDFATYYCQQFYSTPFTFGGGTKLEIKR
B1: in test [1], the virus neutralization titer, NiV 100 TCID50 (cpe fully inhibited, Vero cells) is over 100 µg/mL and the virus neutralization titer, NiV 200 TCID50 (cpe fully inhibited, Vero cells) was over 100 µg/mL. In test [2], this molecule yielded a virus neutralization titer, HeV 100 TCID50 (cpe fully inhibited, Vero cells) of over 100 µg/mL and a virus neutralization titer, HeV 200 TCID50 (cpe fully inhibited, Vero cells) of over 100 µg/mL. Moreover, in test [3], the Ka was found to be 1.6e+07 M⁻¹, the Kd amounted to 62 nM, the off-rate constant (koff) turned out to be 0.0017 s⁻¹ and the kon was determined as 27000 M⁻¹ s⁻¹.

B2: humanized 5B3 IgG1 (antibody, V domains shown)
VH: EVQLVESGGGLVKPGGSLRLSCAASGFTFSSYDMSWVRQAPGKGLEWVAMISSGGSYSYYPDSVKGRFTISRDNSKNTLYLQMNSLRAEDTAVYYCARQGDYAWFAYWGQGTLVTVS
VL: DIQMTQSPSSLSASVGDRVTITCLASQTIGTWLAWYQQKPGKAPKLLIYAATSLADGVPSRFSGSGSGTDFTLTISSLQPEDFATYYCQQFYSTPFTFGGGTKLEIKR
In test [1], B2 registered a virus neutralization titer, NiV 100 TCID50 (cpe fully inhibited, Vero cells) of 1.56 µg/mL and a virus neutralization titer, NiV 200 TCID50 (cpe fully inhibited, Vero cells) of 3.12 µg/mL. In test [2], this molecule displayed a virus neutralization titer, HeV 100 TCID50 (cpe fully inhibited, Vero cells) of 0.78 µg/mL and a virus neutralization titer, HeV 200 TCID50 (cpe fully inhibited, Vero cells) of 12.5 µg/mL. In test [3], this molecule displayed a Ka of 7.5e+07 M⁻¹, a Kd of 13 nM, a koff of 0.00033 s⁻¹ and a kon of 25000 M⁻¹ s⁻¹.

B3: murine 5B3 monoclonal antibody (antibody, V domains shown)
VH: EVQLVESGGGLVKPGGSLKLSCAASGFTFSSYDMSWVRQTPEKRLEWVAMISSGGSYSYYPDSVKGRFTISRDNAKNTLYLQMSSLRSEDTAMYYCARQGDYAWFAYWGQGTLVTVS
VL: DIQMTQSPASQSASLGESVTITCLASQTIGTWLAWYQQKPGKSPQLLIYAATSLADGVPSRFSGSGSGTKFSFKISSLQAEDFVSYYCQQFYSTPFTFGGGTKLEIKR
As for B3, in test [3], the Ka turned out to be 3.7e+08 M⁻¹ and the Kd is 2.7 nM.
